Source: paper PMC6642140, “Boosting NAD^+ with a small molecule that activates NAMPT” (Nature Communications, 2019)

Substrate: Nc1ncnc2c1ncn2[C@@H]1O[C@H](COP(=O)(O)OP(=O)(O)OP(=O)(O)O)[C@@H](O)[C@H]1O
Test: Km from NMN production assay with varied ATP; phosphorylates His247
Format: biochemical, Homo sapiens
Settings: Mg2+ phosphorylation at His247

B1: NAMPT (nicotinamide phosphoribosyltransferase) (Homo sapiens) (protein)
chain: MNPAAEAEFNILLATDSYKVTHYKQYPPNTSKVYSYFECREKKTENSKLRKVKYEETVFYGLQYILNKYLKGKVVTKEKIQEAKDVYKEHFQDDVFNEKGWNYILEKYDGHLPIEIKAVPEGFVIPRGNVLFTVENTDPECYWLTNWIETILVQSWYPITVATNSREQKKILAKYLLETSGNLDGLEYKLHDFGYRGVSSQETAGIGASAHLVNFKGTDTVAGLALIKKYYGTKDPVPGYSVPAAEHSTITAWGKDHEKDAFEHIVTQFSSVPVSVVSDSYDIYNACEKIWGEDLRHLIVSRSTQAPLIIRPDSGNPLDTVLKVLEILGKKFPVTENSKGYKLLPPYLRVIQGDGVDINTLQEIVEGMKQKMWSIENIAFGSGGGLLQKLTRDLLNCSFKCSYVVTNGLGINVFKDPVADPNKRSKKGRLSLHRTPAGNFVTLEEGKGDLEEYGQDLLHTVFKNGKVTKSYSFDEIRKNAQLNIELEAAHH
notes: recombinant, N-terminal His tag removed with thrombin
- Km: 1730 ± 320 µM
